Test [1] deals with proenzyme C3bB (Homo sapiens, UniProt P01024;P00751). As to the kind of experiment: SPR.
Test [2] concerns the target C3b (human, UniProt P01024). Description: SPR.

Sequence of proenzyme C3bB (P00751 whole entry, looked up, chain 1 of 2): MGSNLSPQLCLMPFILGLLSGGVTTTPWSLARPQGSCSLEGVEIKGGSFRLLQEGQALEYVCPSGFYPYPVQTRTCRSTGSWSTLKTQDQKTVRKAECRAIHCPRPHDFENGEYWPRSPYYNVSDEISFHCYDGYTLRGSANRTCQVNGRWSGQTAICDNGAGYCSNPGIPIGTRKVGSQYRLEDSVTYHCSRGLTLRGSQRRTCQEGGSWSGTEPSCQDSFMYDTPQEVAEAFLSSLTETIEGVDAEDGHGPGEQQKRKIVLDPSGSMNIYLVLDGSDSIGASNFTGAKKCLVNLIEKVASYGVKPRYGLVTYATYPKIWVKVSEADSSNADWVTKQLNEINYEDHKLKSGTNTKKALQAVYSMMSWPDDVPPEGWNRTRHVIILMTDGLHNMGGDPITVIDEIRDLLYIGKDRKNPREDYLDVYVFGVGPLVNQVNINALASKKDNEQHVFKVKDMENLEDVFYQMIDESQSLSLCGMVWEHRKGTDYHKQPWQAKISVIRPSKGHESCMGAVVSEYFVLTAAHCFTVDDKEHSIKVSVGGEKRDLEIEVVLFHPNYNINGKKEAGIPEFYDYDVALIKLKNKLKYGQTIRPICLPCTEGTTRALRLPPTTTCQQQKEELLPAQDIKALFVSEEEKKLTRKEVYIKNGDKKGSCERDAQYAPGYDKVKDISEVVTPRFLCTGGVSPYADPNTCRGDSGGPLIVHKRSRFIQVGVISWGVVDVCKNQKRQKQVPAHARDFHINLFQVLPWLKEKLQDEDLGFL
Sequence of proenzyme C3bB (P01024 whole entry, looked up, chain 2 of 2): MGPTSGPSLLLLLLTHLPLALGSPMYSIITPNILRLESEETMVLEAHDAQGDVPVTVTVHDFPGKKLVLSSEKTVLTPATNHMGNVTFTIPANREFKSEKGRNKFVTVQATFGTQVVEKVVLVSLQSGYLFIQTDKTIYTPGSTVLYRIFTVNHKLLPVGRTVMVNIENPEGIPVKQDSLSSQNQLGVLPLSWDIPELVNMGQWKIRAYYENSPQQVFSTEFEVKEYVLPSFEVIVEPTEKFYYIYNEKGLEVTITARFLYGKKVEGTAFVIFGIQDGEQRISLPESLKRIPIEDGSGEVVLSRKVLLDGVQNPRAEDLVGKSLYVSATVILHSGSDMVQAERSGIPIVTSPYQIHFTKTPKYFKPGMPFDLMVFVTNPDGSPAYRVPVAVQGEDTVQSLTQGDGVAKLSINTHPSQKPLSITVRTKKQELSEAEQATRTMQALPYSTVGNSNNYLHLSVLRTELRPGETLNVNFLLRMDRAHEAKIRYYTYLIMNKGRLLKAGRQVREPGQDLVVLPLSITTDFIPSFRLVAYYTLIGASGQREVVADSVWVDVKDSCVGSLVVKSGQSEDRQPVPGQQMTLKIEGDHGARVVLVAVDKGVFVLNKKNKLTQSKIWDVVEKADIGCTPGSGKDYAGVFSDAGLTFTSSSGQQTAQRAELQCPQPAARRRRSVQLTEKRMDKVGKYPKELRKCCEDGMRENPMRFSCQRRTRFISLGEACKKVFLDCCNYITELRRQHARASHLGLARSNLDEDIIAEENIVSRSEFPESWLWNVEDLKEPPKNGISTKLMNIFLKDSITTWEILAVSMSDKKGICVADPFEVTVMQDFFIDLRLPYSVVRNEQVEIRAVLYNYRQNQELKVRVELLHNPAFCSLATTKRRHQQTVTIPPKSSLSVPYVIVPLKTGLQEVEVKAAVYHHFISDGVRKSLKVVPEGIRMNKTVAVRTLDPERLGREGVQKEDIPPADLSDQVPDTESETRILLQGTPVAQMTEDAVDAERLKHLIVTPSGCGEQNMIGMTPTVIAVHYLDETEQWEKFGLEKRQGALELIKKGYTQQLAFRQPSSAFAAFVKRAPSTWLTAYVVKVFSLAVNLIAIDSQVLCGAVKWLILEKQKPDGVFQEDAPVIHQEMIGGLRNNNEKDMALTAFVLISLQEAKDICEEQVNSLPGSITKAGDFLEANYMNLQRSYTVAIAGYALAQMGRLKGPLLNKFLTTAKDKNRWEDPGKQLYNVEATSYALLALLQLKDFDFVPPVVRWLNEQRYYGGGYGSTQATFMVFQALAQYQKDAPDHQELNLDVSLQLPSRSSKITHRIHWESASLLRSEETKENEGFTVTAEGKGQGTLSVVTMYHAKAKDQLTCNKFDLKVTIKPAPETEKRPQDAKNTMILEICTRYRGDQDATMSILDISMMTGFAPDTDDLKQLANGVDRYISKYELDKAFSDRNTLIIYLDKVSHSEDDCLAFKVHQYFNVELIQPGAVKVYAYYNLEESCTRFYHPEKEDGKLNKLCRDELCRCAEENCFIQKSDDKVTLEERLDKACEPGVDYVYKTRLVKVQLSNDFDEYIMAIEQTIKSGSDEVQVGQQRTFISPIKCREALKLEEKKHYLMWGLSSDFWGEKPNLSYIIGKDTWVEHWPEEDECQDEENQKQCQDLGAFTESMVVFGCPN

B1: mAb 3E7 (antibody, V domains shown)
VH: EVQLQESGPSLVKPSQTLSLTCSVTGDSITSDYWNWIRKFPGNKLESMGYITYSGTTYYNPSLKSRISITRDTSKNQYYLQLNSVTSEDTATYYCARGVDYEPSYYFDYWGQGTTLTVSS
VL: DIQMTQTTSSLSASLGDRVTISCSASQGISNYLNWYQQKPDGTVKLLIYYTSSLHSGVPSRFSGSGSGTDYSLTISNLEPEDIATYYCQQYSNLPWTFGGGTKLEIK
B1: the binding result in test [1] is “no binding (tested: 20 μg/ml)”.

B2: mAb H17 (antibody, V domains shown)
VH: EVQLQESGPSLVKPSQTLSLTCTVSGDSITSDYWNWIRQAPGKGLESMGYITYSGTTYYNPSLKSRVTISRDTSKNQYYMELSSLRSEDTATYYCARGVDYEPSYYFDYWGQGTLVTVSS
VL: DIQMTQSPSSLSASVGDRVTITCSASQGISNYLNWYQQKPGKAPKLLIYYTSSLHSGVPSRFSGSGSGTDYSLTISSLQPEDIATYYCQQYSNLPWTFGQGTKVEIK
In the case of B2, the binding result in test [1] is “no binding (tested: 20 μg/ml)”. This molecule also yielded a Kd in test [2] of 28 nM.

For the origin of these results see article PMC4066585 (Journal of immunology (Baltimore, Md. : 1950), 2014).
